Laboratory results from PMC10128974, “Sulfonylpiperazine compounds prevent Plasmodium falciparum invasion of red blood cells through interference with actin-1/profilin dynamics” (PLOS Biology, 2023).

How the values were obtained:
[1] = biological target: T1, PfACT1 with PfPFN (P. falciparum actin-1/profilin) (Plasmodium falciparum, UniProt Q8I2J4+Q8I4X0); assay: actin cosedimentation by ultracentrifugation, SDS-PAGE densitometry; format: biochemical; conditions: 4 uM PfACT1, 16 uM PfPFN, 25 uM compound, 50 mM KCl, 4 mM MgCl2, 1 mM EGTA, 0.5 mM ATP, 2.5% DMSO, pH 7.5, about 22 C, 16 h, binding site not located
T1 construct: gene ACT1; PfACT1 from S. frugiperda Sf21 cells (baculovirus)
T1 sequence (Q8I4X0 whole entry, one chain of several): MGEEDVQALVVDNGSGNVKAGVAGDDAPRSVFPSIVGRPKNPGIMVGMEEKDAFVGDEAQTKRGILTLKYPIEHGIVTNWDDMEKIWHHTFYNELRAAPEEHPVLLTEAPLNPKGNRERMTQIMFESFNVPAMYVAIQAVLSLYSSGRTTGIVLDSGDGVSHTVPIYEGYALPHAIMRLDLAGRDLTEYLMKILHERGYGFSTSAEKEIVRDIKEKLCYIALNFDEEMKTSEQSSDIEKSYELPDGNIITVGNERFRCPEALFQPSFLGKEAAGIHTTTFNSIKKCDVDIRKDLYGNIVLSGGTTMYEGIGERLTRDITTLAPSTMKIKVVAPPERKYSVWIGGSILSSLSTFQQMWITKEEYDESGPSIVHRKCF
Text: actin cosedimentation by ultracentrifugation, SDS-PAGE densitometry on PfACT1 with PfPFN (P. falciparum actin-1/profilin) | S-W827, decreased the amount of actin in the pellet further to | All MMV291 analogues, S-MMV291, R-MMV291, S-W936, R-W936, S-W414, and S-W827, decreased the amount of actin

[2] = biological target: Plasmodium falciparum actin-1 (P. falciparum) (UniProt Q8I4X0)
Chain of Plasmodium falciparum actin-1 (P. falciparum) (Q8I4X0 whole entry): as the sequence (Q8I4X0 whole entry, one chain of several) above

CC(C(=O)N1CCCC1)N1CCN(S(=O)(=O)c2ccc(C(C)(C)C)cc2)CC1 (racemic) [S-MMV291]
% PfACT1 in pellet at 25 uM [1]: 11 ± 1%

CC(C(=O)N1CCCC1)N1CCN(S(=O)(=O)c2ccc(C(C)(C)C)cc2)CC1 (racemic) [R-MMV291]
% PfACT1 in pellet at 25 uM [1]: 15 ± 2%

B1: Plasmodium falciparum profilin (natural protein)
chain: MAEEYSWDSYLNDRLLATNQVSGAGLASEEDGVVYACVAQGEESDPNFDKWSLFYKEDYDIEVEDENGTKTTKTINEGQTILVVFNEGYAPDGVWLGGTKYQFINIERDLEFEGYNFDVATCAKLKGGLHLVKVPGGNILVVLYDEEKEQDRGNSKIAALTFAKELAESSQ
relative amount of PfACT1 (4 uM) in the pellet fraction of the sedimentation assay under polymerizing conditions with PfPFN (16 uM), DMSO [2]: 21% | relative amount of PfACT1 (4 uM) in the pellet fraction of the sedimentation assay with PfPFN (16 uM) and R-MMV291 (25 uM) [2]: 15% | relative amount of PfACT1 (4 uM) in the pellet fraction of the sedimentation assay with PfPFN (16 uM) and R-W936 (25 uM) [2]: 10% | relative amount of PfACT1 (4 uM) in the pellet fraction of the sedimentation assay with PfPFN (16 uM) and S-MMV291 (25 uM) [2]: 11% | relative amount of PfACT1 (4 uM) in the pellet fraction of the sedimentation assay with PfPFN (16 uM) and S-W414 (25 uM) [2]: 9% | relative amount of PfACT1 (4 uM) in the pellet fraction of the sedimentation assay with PfPFN (16 uM) and S-W827 (25 uM) [2]: 5% | relative amount of PfACT1 (4 uM) in the pellet fraction of the sedimentation assay with PfPFN (16 uM) and S-W936 (25 uM) [2]: 8%
